From the NTF2 design screens of Basanta et al. (2020)

Assay: protease stability score; higher = more stable; yeast display proteolysis, trypsin and chymotrypsin;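 also: log10 excess protease needed over predicted unfolded state with 0 meaning unfolded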

Sequence	protease stability score
DDEEDHRVARLASTALQTGDPNQFKNLVDEDVKADVGDKTYHGHEQVMEMFKKFVDQVDHIKVKRVEVDGETARVDAEADINGRTKKIVLDVQAHNGHIKRVQMETS	0.39
DERLKEQVKRLWEALKENDHDELSKLVDKDAHIVVGDKEVHGRENFMTEMATELSEIRIDYKRLHIDAQGDTADVEVDVEQEHNGQPRRDVKRVEFEYENGRLVKMNVQDNG	0.438
DERDLKEAIDNIRTNNFDELNKMADPNVKAVIGNKTIHGRETINKFLHRLSQQVDHVRIRHYHTRGDHLHVDFKVHFDGKDVKLRIVIRVNNGKITYIQIDVTSEEQLEELDEIVD	1.59
DDKDAKRLLTLWHQIEEGNPEEVQKMMDENVHVSIGDKEVHGREEDARQRKEEVDSMRVSLKIDHYSDNNGRIVVDATQENETNGKPSTKRFVIEARMDNGTLKRLQIEDDK	0.097
DEEDAKNAVRAVEALVTGDPDKMSKLFDKHASVEVGDKRVRGREEIRELAEQLEREMRLRVEIKHVQIQGDKVDVKFDAQRHHNGRPDDNKQTMHLTAHDGRVKNMSITSNG	-0.376
DEHKQQERAEDAVRVMQKGDERRFHEQLDENVRVTIGDREVHGRENAVEMFQEWVKRADHIRVDKLEVSNGVVNAHFEVEHNGQTRHQVMVVTYHNGEIQHMTIDRG	0.741
DDREIKELLQLMLDAIRDGNEQSASKMADENARVKVGDKKVHGREQIQELVKELKKNVDHFTVNDIKQQGDKASADAEMDVNGVTVHMEVRVQVHNGHVKHAEMTYRDEDQKRQFHQ	-0.433
DEEHRAKTAQDDIRRINQNGDPDQMHRLADKDARIQIGDTFLHGREQIKEQMERDNKKFDHQQVEIKKVEVRGDKVRIVAEIKADFNGDNKTTRFVIYLTVKNGRVKMKKVTDG	-0.194
DEKNSKLAKDFFEAIESNNPEHAKELADENARYQVGDKQLHGMDEVLKHIKRENERAQVTVSSMTFRISNGRVEVHMDVQRDDNGDPDKKNLVVNFHFRNGKIKEVQDKNDS	0.614
EEEVKRKMKEYFDVARHGDPDRLREYVDENARIHIGDKVIHGMSDAADHLAQHYKEIRFDYTRIDVKAEGDQVKVDIDVVVNHNGRPEQVHLHWEARFTNGRVKHMKVQRQK	-0.108
DEENVKKVQEQLERNDREKLKSNVDKNAEVRVGDKTYHGREDAKTVLEQLARQVDNMQWQSIRIKGEHIDAKMVVQINGKHIQVSIELTVHNGKISHFVIHARNEEVNETLKEAVD	0.516
DEEVEEQVKELKRILETGDEDRMQENADPNVRAVYGNKEIHGRDQLREEIRSLKDEMRYEVEIKDYRIRPNEADVRATWHMRVNGQPMRQEVKVKIKFHNGKLKVFVLDFDEEHEKRSRK	-0.054
DDDKVTKVNELLENIKRGNEDDIRDLMDPNARVRIGDKDFHGREEVSDTWKQIRDTAHLSFTDVKNDDQGDHVYVRARFHQTHNGKPDTSVLHLEVTIRNGKIKEAQFHETP	-0.159
DESKQRTFAEELLTAWETGNDDQARKLADPNVRFHIGDKEISGRENFAKWAKEVRDRVDHIRYEHIEIRGEKVRVNVQLEFDGKTERRVIVFNVHDGQVKSMDVKTT	1.34
DEEDLQKLARSFQENLKTGNPDELMKLFDEDANLHYGDKKVHGREDIRRWADEMRRRVDKVTVLQVDAHGDKMDAVIVQRFDGRDVMISVDAKFHNGRFKEVVYRVRDEEHEKRLHT	1.38
DEEAQKAAERVWKAIERGNEEELHRLIDPDVRIKVGDKDYHGREHYVESVVEIMTTIRFTIHRMEIKVSGERVIIEYHYEFSVNGQPDTMRVIVYMVAHNGKVKNIHVKMSPEKRDRFRE	1.05
DEEVKTLVERLVEALNTGDPDSAMHLVDENAKFQYGDRELHGRENVHKFVEDMKREIRIDMEVKRLRVEPGRVKLTAEFSLSVNGQPDHQSVTMRATAHNGQLKDVQFRLPPEKLEKLKS	-0.199
DEKETKKVLEQAAKLFVNGDVHRVMQLGADDVEVEYGDERYHGKDAAKRVIEKHQKLGIKVEYDELHVEGDRVKAKVRADQAGTTAHFTFEYKATGQRVDKMRVKYDETAQKMIKHG	-0.23

Sequence	protease stability score
DHRQQVRDIFKEMQDARRKGNEKTLQKLVDPNAKAEYGDKTYHGRENVAKMLLDEAKRVDHFEVHIKTFSIKNGTARVHADVVVKHDGQKRSTDVFYVFRDHNGQMLLVRARTQ	1.38
DEEKVRHQATRFFKALQTNDEDHAVKLADENVRIVIGDKTLRGREDLKDFVRKIKNQADRVELKSVEVHGNKAKLDFIVHVNGRRVKITMVIEVDNGRVSQLELNPHDVRKMEQ	1.42
DEEEVRKVLERLQKAVEKGNADEIAKLLKDDGEFVLIDERYKGQEDAKQVIKELQDKGFEFHTEEIQVKGGTAEVKTVWRVGDRELHLKVRYVVRGDKVDQVHAQWSKDAKEDLKKG	0.691
EEEMVKHIKRVLENNDEERRAQLADKDAHARVGDRHVHGREELEKIVHHIKRRVDHLEVKDVKADGNTIEADVVMQVDGRTMQYNLTIILHNGTIKSVTIKVRNEEQKKLMEELFG	0.317
DEELRKLAEQLVTIFQTGNEHHVQELMDPNAKLQIGDTEFKGREEYVKEVKKRRDEMRFSIKKVKVDAHGDKIDIKIHMTMKHDGKPRDYVVTVHLRVQGDKIKSAHYQDTK	0.155
DRKAEKLLEDLLDARRTNDEKKLQDLMDPNVKVDVGNKHYEGRERNAKSYAQEYKQMRLEIRVKSIHNNGNHVIQTFDADVRINGKPIRFRAQMMLHFHNGRVQHVYLRLDPSVEQHRRD	0.218
DEEEAKKFMETWQKAVEKGDTKTARELYDPNVEWIDYSQRHQGVEMVVKQMQQVKKKGVEFQIRKAKVEGNEVEVVYDANIGNETATFTVQFRAEGGRVKEVRVKMDEKAKKIKREG	0.064
DERALKMIREFEEIRSKGDERQLSEQVDKDADFHVGDKRLTGMDRVASELVQEVRDWRVSVDIKRMSISNGSLDIDAQVRFSHNGKPVTVHLDLKIIVHNGTIKQIEITNQP	0.698
DEEAQKRAEELIRILQTGDPDKLMEMFDKDAHATIGDQTVRGREDMRRRQKELKETMDVKLDITDVKVTGEKIDIRIKATFNYNGQPAEDTIVFIIQQHNGRVQRFEVRIDEDVLRQLKK	0.184
DKHLEDLARTLVHALRTGDPQMINHLFDENARVEVGNRRVHGREDANQRMKEINSQARMHVRLTSLRVDENRADLTVDASARVNGQPNTLRYQFWFHQHNGRITSMSARMSEHDVKQFES	-0.278
DEKETHKVLEKIEKVLHNFNIDEAKKVLKDDVRVQYLDEEYHGPDAAEKRLTKVKKLGAQVEYKEAHVEGNRVKAKVQVNVGGRTLEFTVEYTAKGHKVDEFRVQYDEDAQKTIKHG	0.76
DEEDMDEVEKAIRKNDPEKMRDLADENAKASVGDNQFHGRDNVENFMKHLTDHADHVQVDSVEKHNGRVVVNAQLDINGEQIQIVIRIDVHNGKIKRFSIEVRDEEAHHFMREMVS	0.895
DENREASTFMEQLQRNLRDGDHEEVVRMIDENARLEVGDKRIEGDHNVAHELMNQARRVDHFKMNITHLEVSNGRVKVVFIAKYEVNGRTEVNVYEQVLEIENGRLSLVSRRRK	0.545
DDEKREKILKTFVDLFMNGDEEDIQRMMDENARASVGDKTYHGQEQVNKALKEIRDQFDRVEVKHIHVSGDKFRINMVINVNGKHVHVEVEISVHNGRIHEISFDPEHLTKMRN	0.444
DEEDAKRVEEMLEALRTGDWKKATDMADPDARFQIGDKRYHGMHQVAREWKNQYDQMRIEINVKEWNIHNGRVDLKFEQKNDHNGKPDNFRASATFQFHNGQLVEAQYQRDS	0.634
EERQQELAKTFMEAVQSNDTTQLKRMFDKHAKVTVGDKTVSGREDASKWLSKLHKESRVQLRDVKVEVSGNKIDIKVRFEVQHNGKPREVTREMEMTFHNGKIKDLRATRTE	0.394
DDEQLKKLAQKFADNMQSGNEEEFDRMAPPEVRVQIGDKTYKGRDKVKEMMKRFRTTADHVRIESFEAHNGQITFNVIIQVNGKSHRIRLRIQARNGQVKQFDLNPDDQRKVEK	0.18
DKKDVDRVIKLLEQGDWESLVEMMDENARLQVGNKNYHGRTQVRHAATRLQDRIDHVKIDQVDVHNGRVDARFKANINGKTMDVQVRINVDNGHIKYVRVTVRSEELRHELDRLLS	0.961
